# In IntAct's records for PubMed 32296183:
# B1: Golgi SNAP receptor complex member 2 (Homo sapiens), O14653 (parent)
# chain: MDPLFQQTHKQVHEIQSCMGRLETADKQSVHIVENEIQASIDQIFSRLERLEILSSKEPPNKRQNARLRVDQLKYDVQHLQTALRNFQHRRHAREQQERQREELLSRTFTTNDSDTTIPMDESLQFNSSLQKVHNGMDDLILDGHNILDGLRTQRLTLKGTQKKILDIANMLGLSNTVMRLIEKRAFQDKYFMIGGMLLTCVVMFLVVQYLT
# partner: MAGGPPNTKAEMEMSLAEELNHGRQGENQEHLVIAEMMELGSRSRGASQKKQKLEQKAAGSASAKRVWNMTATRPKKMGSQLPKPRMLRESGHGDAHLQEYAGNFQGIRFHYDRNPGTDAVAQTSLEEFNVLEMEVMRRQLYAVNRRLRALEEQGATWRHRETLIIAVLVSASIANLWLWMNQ
# B2: Golgi SNAP receptor complex member 2 (Homo sapiens), O14653 (parent)
# chain: B1 chain
# partner: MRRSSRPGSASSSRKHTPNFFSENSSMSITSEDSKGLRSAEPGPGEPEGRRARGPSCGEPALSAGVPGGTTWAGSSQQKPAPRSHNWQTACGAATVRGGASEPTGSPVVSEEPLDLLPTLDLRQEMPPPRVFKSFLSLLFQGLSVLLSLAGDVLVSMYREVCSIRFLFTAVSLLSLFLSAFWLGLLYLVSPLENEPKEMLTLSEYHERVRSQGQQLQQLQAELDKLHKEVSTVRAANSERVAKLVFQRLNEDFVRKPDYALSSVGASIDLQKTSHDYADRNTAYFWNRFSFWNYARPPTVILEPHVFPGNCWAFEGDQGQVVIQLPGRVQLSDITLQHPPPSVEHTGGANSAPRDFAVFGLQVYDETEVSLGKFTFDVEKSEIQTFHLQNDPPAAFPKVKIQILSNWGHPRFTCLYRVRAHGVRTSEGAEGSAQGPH
# B3: Catenin alpha-3 (Homo sapiens), Q9UI47-2 (parent)
# chain: MSAETPITLNIDPQDLQVQTFTVEKLLEPLIIQVTTLVNCPQNPSSRKKGRSKRASVLLASVEEATWNLLDKGEKIAQEATVLKDELTASLEEVRKESEALKVSAERFTDDPCFLPKREAVVQAARALLAAVTRLLILADMIDVMCLLQHVSAFQRTFESLKNVANKSDLQKTYQKLGKELENLDYLAFKRQQDLKSPNQRDEIAGARASLKENSPLLHSICSACLEHSDVASLKASKDTVCEEIQNALNVISNASQGIQNMTTPPEPQAATLGSALDELENLIVLNPLTVTEEEIRPSLEKRLEAIISGAALLADSSCTRDLHRERIIAECNAIRQALQDLLSEYMNNAGKKERSNTLNIALDNMCKKTRDLRRQLRKAIIDHVSDSFLDTTVPLLVLIEAAKNGREKEIKEYAAIFHEHTSRLVEVANLACSMSTNEDGIKIVKIAANHLETLCPQIINAALALAARPKSQAVKNTMEMYKRTWENHIHVLTEAVDDITSIDDFLAVSGMFLFF
# partner: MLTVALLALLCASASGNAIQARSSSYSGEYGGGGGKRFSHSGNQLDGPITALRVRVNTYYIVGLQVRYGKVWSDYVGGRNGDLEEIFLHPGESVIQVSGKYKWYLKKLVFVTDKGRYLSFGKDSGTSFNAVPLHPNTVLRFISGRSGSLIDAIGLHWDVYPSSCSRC
# B4: Catenin alpha-3 (Homo sapiens), Q9UI47-2 (parent)
# chain: B3 chain
# partner: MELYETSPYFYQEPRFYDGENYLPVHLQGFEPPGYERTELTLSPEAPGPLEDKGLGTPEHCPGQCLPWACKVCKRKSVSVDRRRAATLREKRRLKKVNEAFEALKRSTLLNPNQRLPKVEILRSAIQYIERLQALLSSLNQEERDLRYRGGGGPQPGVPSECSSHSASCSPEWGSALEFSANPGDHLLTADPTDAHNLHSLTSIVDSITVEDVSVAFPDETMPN
# B5: Catenin alpha-3 (Homo sapiens), Q9UI47-2 (parent)
# chain: B3 chain
# partner: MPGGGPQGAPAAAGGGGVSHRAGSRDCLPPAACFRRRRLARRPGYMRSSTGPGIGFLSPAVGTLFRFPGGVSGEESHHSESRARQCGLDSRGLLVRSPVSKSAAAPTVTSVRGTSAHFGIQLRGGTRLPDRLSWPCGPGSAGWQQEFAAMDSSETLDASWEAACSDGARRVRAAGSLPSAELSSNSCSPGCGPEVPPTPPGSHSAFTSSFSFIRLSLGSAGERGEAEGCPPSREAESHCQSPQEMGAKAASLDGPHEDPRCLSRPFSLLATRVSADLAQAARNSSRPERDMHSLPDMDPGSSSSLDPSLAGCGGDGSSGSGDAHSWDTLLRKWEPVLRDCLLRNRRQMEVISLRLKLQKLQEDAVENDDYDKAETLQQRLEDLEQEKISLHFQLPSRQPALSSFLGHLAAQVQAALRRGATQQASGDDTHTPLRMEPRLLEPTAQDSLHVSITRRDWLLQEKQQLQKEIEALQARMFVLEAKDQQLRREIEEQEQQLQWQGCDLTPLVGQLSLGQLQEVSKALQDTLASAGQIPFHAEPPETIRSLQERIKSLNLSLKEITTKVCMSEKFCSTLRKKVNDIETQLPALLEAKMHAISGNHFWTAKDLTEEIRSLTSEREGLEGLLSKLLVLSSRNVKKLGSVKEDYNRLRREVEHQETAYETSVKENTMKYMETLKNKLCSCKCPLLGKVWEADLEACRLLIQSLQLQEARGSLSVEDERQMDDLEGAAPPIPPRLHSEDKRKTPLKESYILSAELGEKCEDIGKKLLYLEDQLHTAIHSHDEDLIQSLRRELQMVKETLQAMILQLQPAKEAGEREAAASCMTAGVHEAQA
# B6: Succinate--CoA ligase [ADP-forming] subunit beta, mitochondrial (Homo sapiens), Q9P2R7 (parent)
# chain: MAASMFYGRLVAVATLRNHRPRTAQRAAAQVLGSSGLFNNHGLQVQQQQQRNLSLHEYMSMELLQEAGVSVPKGYVAKSPDEAYAIAKKLGSKDVVIKAQVLAGGRGKGTFESGLKGGVKIVFSPEEAKAVSSQMIGKKLFTKQTGEKGRICNQVLVCERKYPRREYYFAITMERSFQGPVLIGSSHGGVNIEDVAAESPEAIIKEPIDIEEGIKKEQALQLAQKMGFPPNIVESAAENMVKLYSLFLKYDATMIEINPMVEDSDGAVLCMDAKINFDSNSAYRQKKIFDLQDWTQEDERDKDAAKANLNYIGLDGNIGCLVNGAGLAMATMDIIKLHGGTPANFLDVGGGATVHQVTEAFKLITSDKKVLAILVNIFGGIMRCDVIAQGIVMAVKDLEIKIPVVVRLQGTRVDDAKALIADSGLKILACDDLDEAARMVVKLSEIVTLAKQAHVDVKFQLPI
# partner: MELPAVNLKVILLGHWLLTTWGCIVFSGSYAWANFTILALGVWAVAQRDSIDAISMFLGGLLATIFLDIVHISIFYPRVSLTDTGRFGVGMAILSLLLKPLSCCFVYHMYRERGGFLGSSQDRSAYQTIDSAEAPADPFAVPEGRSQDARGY
# B7: Catenin alpha-3 (Homo sapiens), Q9UI47-2 (parent)
# chain: B3 chain
# partner: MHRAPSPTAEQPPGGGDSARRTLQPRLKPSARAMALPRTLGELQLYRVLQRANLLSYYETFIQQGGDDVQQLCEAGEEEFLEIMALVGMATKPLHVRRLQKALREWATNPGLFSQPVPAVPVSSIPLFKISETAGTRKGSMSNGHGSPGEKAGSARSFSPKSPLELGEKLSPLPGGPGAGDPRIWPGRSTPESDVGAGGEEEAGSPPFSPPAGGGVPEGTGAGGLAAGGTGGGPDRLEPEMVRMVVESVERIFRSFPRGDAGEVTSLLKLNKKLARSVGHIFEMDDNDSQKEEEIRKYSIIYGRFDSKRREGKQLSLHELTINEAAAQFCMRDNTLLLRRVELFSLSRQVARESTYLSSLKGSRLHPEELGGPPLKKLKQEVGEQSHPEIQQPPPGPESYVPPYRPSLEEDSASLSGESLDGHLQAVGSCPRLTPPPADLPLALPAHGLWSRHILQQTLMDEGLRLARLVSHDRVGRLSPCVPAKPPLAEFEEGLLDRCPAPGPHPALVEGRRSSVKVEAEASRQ
# B8: Transmembrane protein 43 (Homo sapiens), Q9BTV4 (parent)
# chain: MAANYSSTSTRREHVKVKTSSQPGFLERLSETSGGMFVGLMAFLLSFYLIFTNEGRALKTATSLAEGLSLVVSPDSIHSVAPENEGRLVHIIGALRTSKLLSDPNYGVHLPAVKLRRHVEMYQWVETEESREYTEDGQVKKETRYSYNTEWRSEIINSKNFDREIGHKNPSAMAVESFMATAPFVQIGRFFLSSGLIDKVDNFKSLSLSKLEDPHVDIIRRGDFFYHSENPKYPEVGDLRVSFSYAGLSGDDPDLGPAHVVTVIARQRGDQLVPFSTKSGDTLLLLHHGDFSAEEVFHRELRSNSMKTWGLRAAGWMAMFMGLNLMTRILYTLVDWFPVFRDLVNIGLKAFAFCVATSLTLLTVAAGWLFYRPLWALLIAGLALVPILVARTRVPAKKLE
# partner: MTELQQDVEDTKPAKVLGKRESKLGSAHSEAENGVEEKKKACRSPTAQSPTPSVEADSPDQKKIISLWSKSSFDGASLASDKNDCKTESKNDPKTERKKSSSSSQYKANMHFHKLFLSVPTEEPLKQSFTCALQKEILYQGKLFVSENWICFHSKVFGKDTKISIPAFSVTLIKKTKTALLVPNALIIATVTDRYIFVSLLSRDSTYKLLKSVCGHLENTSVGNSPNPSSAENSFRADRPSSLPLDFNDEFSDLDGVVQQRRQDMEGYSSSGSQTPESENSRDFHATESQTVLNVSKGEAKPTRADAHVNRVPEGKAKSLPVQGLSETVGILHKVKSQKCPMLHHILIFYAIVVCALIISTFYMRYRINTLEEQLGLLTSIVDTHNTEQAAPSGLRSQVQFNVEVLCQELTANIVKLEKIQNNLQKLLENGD
# B9: Golgi SNAP receptor complex member 2 (Homo sapiens), O14653 (parent)
# chain: B1 chain
# partner: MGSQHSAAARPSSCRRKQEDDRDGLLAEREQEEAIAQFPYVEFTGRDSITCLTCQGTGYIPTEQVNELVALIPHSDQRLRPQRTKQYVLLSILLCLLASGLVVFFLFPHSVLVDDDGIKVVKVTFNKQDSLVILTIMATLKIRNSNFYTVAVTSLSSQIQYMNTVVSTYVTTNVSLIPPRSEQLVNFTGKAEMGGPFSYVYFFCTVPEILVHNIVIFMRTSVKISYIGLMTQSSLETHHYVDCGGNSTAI
# B10: Golgi SNAP receptor complex member 2 (Homo sapiens), O14653 (parent)
# chain: B1 chain
# partner: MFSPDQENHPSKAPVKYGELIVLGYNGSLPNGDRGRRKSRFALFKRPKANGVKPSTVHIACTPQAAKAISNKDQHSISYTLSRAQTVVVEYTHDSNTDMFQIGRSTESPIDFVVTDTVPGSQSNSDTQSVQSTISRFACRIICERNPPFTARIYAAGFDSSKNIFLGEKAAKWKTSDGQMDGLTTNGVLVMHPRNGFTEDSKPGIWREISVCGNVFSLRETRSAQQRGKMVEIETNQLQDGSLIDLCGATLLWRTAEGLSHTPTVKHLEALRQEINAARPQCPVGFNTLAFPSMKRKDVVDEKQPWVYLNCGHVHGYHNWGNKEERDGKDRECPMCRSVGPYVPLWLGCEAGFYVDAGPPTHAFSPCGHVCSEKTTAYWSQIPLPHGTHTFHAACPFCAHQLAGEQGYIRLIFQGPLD
# Variants of: B1
# Settings: with fate1_human FATE1, Q969F0
row,effect of a mutation on the interaction,Variant
1,with no effect,G144W

# Variants of: B2
# Settings: with spag4_human SPAG4, Q9NPE6
row,effect of a mutation on the interaction,Variant
1,with no effect,G144W

# Variants of: B3
# Settings: with zg16_human ZG16, O60844
row,effect of a mutation on the interaction,Variant
1,disrupting interaction strength,V94D

# Variants of: B4
# Settings: with myog_human MYOG
row,effect of a mutation on the interaction,Variant
1,disrupting interaction strength,V94D

# Variants of: B5
# Settings: with DISC1, Q9NRI5-2
row,effect of a mutation on the interaction,Variant
1,disrupting interaction strength,V94D

# Variants of: B6
# Settings: with AGTRAP
row,effect of a mutation on the interaction,Variant
1,disrupting interaction strength,D251N
2,disrupting interaction strength,G118R

# Variants of: B7
# Settings: with nab2_human NAB2, Q15742
row,effect of a mutation on the interaction,Variant
1,disrupting interaction strength,V94D

# Variants of: B8
# Settings: with grm2b_human GRAMD2B
row,effect of a mutation on the interaction,Variant
1,with no effect,E142K
2,with no effect,I91V
3,with no effect,E85K
4,with no effect,Y371H

# Variants of: B9
# Settings: with TMEM106C
row,effect of a mutation on the interaction,Variant
1,disrupting interaction strength,G144W

# Variants of: B10
# Settings: with peli1_human PELI1, Q96FA3
row,effect of a mutation on the interaction,Variant
1,disrupting interaction strength,G144W
